{"source": "paper doi:10.1101/2021.05.06.441297", "molecular_target": "fluorescently labeled non-covalent analog of peptide 5 (UniProt P46937)", "sequence (P46937 whole entry, looked up, tested part not stated)": "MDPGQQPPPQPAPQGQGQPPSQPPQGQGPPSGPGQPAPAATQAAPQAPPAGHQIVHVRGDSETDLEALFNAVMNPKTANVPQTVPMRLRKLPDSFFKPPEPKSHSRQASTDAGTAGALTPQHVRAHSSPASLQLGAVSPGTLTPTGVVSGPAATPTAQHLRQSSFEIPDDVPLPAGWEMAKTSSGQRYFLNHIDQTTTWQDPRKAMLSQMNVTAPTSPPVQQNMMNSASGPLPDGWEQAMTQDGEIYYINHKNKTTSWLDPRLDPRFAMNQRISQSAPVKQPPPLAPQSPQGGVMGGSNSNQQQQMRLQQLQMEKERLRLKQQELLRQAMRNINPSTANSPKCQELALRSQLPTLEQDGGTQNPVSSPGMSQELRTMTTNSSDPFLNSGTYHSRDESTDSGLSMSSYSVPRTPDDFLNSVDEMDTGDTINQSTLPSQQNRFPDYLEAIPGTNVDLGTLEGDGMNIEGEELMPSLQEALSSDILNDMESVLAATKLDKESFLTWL", "experiment": "fluorescence polarisation", "data": [{"substance": "14-3-3σ full length (1-248) (natural protein)", "values": [{"measurement": "Kd", "value": 0.106, "unit": "µM"}]}]}
